{
  "source": "patent US7696175",
  "key": {"[1]": {"molecular_target": "intracellular antigens (TNT) in paraformaldehyde fixed Raji lymphoma cells", "assay": "fixed-cell radioimmunoassay on Raji cells, compared with the literature value for NHS76"}, "[2]": {"molecular_target": "intracellular antigens (TNT) in paraformaldehyde fixed Raji lymphoma cells", "assay": "fixed-cell radioimmunoassay: 125I-labeled fusion protein on paraformaldehyde-fixed Raji lymphoma cells, Scatchard analysis, Ka = -(slope/n) with n = 2"}},
  "data": [
    {"substance": "B7.1/NHS76 fusion protein (from UniProt P33681 35-242)", "values": [
      {"measurement": "affinity relative to parental NHS76 (fold of parental NHS76)", "setting": "[1]", "result": 0.14},
      {"measurement": "Ka", "setting": "[2]", "result": "2.15e+08", "unit": "M⁻¹"}
    ]}
  ]
}
